Assay results: publication PMC10470591

Tests used:
[1] = target: Flag-tagged SisArnB (vWA domain protein) expressed in S. islandicus (Saccharolobus islandicus REY15A); assay: co-IP; in vivo pull-down: Flag-ArnB or Flag-ArnE precipitated with anti-Flag magnetic beads from sonicated S. islandicus cell extract in buffer A (50 mM Tris-HCl pH 7.5, 150 mM NaCl, 5% glycerol); SisArnA detected by Western blot with anti-SisArnA; cells untreated or treated with 3 µM NQO for 6 h
[2] = target: Flag-tagged SisArnE (vWA domain protein SisvWA2) expressed in S. islandicus (Saccharolobus islandicus REY15A); assay: as above

**Q.** With “SisArnA, FHA domain-containing protein from Saccharolobus islandicus REY15A (endogenous) (natural protein)” as the substance, how does the amount of SisArnA pulled down after NQO treatment, percent of the untreated sample [1] read?
**A.** Its amount of SisArnA pulled down after NQO treatment, percent of the untreated sample is 40%.

**Q.** And the fold of the SisArnA-ArnE interaction, normal growth conditions [1]?
**A.** The fold of the SisArnA-ArnE interaction, normal growth conditions was 9 fold.

**Q.** And the amount of SisArnA pulled down after NQO treatment, fold of the untreated sample [2]?
**A.** Its amount of SisArnA pulled down after NQO treatment, fold of the untreated sample is 3 fold.
